Target: Lrp4-myc (mouse full length Lrp4) (mouse) (UniProt Q8VI56)
UniProt Q8VI56, sequence (Q8VI56 21-1905): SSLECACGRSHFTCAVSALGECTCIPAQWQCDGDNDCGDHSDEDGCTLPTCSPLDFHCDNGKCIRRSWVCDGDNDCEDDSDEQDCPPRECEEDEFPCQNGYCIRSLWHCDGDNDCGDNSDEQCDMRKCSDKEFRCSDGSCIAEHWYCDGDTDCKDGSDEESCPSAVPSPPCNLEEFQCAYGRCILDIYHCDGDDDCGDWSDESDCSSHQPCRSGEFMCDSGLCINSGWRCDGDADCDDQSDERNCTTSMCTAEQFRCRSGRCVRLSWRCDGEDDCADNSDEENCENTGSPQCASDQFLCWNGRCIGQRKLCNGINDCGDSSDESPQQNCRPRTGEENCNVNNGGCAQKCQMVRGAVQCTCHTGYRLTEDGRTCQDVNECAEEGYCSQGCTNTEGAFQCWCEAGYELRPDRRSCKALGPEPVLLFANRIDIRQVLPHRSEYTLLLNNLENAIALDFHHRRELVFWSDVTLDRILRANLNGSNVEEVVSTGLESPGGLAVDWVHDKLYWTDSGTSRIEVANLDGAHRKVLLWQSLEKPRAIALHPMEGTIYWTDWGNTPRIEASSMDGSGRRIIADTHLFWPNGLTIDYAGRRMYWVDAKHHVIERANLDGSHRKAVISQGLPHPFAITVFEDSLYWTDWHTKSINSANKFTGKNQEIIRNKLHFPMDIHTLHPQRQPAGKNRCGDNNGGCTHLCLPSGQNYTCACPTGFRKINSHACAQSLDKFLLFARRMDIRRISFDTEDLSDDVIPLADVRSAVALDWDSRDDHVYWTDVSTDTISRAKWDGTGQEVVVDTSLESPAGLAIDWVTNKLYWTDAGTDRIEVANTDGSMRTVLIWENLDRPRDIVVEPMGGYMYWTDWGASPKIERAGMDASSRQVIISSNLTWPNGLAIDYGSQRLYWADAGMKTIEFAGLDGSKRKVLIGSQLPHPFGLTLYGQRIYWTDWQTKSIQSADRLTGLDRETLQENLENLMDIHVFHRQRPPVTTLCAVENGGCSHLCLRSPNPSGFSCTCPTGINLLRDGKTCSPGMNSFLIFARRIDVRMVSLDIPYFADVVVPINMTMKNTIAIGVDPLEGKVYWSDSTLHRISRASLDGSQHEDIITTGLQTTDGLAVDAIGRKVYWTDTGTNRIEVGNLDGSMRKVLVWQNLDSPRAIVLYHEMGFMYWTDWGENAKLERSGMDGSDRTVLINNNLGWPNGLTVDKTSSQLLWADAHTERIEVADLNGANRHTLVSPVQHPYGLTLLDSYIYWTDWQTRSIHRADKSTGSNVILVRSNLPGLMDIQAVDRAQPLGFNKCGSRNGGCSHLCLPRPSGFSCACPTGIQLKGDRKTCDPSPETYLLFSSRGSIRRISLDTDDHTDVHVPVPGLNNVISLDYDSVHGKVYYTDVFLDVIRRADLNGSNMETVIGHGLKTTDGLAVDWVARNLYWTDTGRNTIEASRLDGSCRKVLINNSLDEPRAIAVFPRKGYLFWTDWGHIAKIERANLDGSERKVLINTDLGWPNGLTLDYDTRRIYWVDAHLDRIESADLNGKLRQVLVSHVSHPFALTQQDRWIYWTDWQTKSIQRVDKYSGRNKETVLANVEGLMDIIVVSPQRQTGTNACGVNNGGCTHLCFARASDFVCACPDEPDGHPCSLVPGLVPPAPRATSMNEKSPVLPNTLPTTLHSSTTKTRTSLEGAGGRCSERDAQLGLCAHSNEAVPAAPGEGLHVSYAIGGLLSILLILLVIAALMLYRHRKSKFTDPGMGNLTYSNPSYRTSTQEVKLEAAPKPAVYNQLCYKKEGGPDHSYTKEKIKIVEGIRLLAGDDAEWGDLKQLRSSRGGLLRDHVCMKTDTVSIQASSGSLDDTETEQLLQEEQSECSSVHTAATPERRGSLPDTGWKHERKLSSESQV

AChR clustering on differentiated C2C12 myotubes, 16 h (area of AChR clusters normalized to myotube area), EC50: 0.44 nM
Substance: NT-1654, C-terminal 44 kDa fragment of murine agrin (from UniProt A2ASQ1 1519-1950) (domain or fragment)
